The record followed here is patent US5770717.

This test has as its target activation domain-fused yeast RPB4 protein (RPB4 in JG4-5) (yeast (Saccharomyces cerevisiae)) (UniProt P20433). In words: two-hybrid interaction trap in yeast, beta-galactosidase assay with and without activation domain-fused RPB4.

For the substance “LexA-RPB7 fusion protein (yeast RPB7) (from UniProt P34087)”, the degree of enhancement of activation (beta-galactosidase assay) worked out at 60 fold.
